Like-named read-outs stand apart in the source and are kept apart here.
Key:
[1] = tested on: αvβ6-integrin expressing human lung adenocarcinoma cell line H2009 xenografts; assay: Ex vivo biodistribution of 177Lu-labeled peptide tetramers in H2009 xenografted SCID mice; conditions: H2009 bearing SCID mice
Procedure: (§1) The biodistribution of the ^177Lu-labeled peptide conjugates was investigated in severe combined immunodeficiency (SCID) mice bearing subcutaneous xenografts of the αvβ6-integrin expressing human lung adenocarcinoma cell line H2009 on their right shoulders. Two representative time points after i.v. administration (p.i.) were evaluated.
(§2) Analytical HPLC was performed on a Shimadzu (Kyoto, Japan) Prominence HPLC system equipped with either a Dr. Maisch ReproSil Pur C18 AQ 150 × 4.6 mm, 5 μm, 120 Å (AC1) or a Phenomenex Kinetex C18 150 × 4.6 mm 5 μm column (AC2). Semipreparative HPLC was performed on a Shimadzu HPLC system equipped with either a Dr. Maisch ReproSil Pur C18 AQ 250 × 10 mm, 5 μm, 120 Å column with 5 mL min^−1 flow (PC1) or a Dr. Maisch ReproSil Pur C18 150 × 30 mm, 5 μm, 120 Å column with 20 mL min^−1 flow (PC2). Solvents for both systems were water (A) and acetonitrile (B) each supplemented with 0.1% (vol) trifluoroacetic acid (TFA). ESI-MS spectra (positive mode) were recorded on a Shimadzu LC-MS 2020 single quadrupol mass spectrometer. Solvents for MS applications were water (A) and acetonitrile (B) each supplemented with 0.1% (vol) formic acid. The other experimental procedures (determination of log D7.4, cultivation of H2009 human lung adenocarcinoma cells, generation of tumor xenografts in CB17 SCID mice, and biodistribution) were performed as described before.[28] All animal experiments have been carried out according to applicable law and institutional guidelines of Technical University of Munich, and were approved by the responsible local authority (Regierung von Oberbayern). The H2009 cells were regularly authenticated and tested for mycoplasma contamination. DOTPI-tetraazide,[43]FF (previously termed AvB6),[29]FY,[34] and YY (also referred to as Tyr2-alkyne)[36] were synthesized as described previously.

[2] = as above; conditions: CB17 SCID, mouse, iv, total radioactivity, H2009 bearing SCID mice; for tissue uptake at 72 h / tissue to tissue ratio at 72 h: 42 pmol, 3 d p.i.; for tissue uptake at 1.5 h / tissue to tissue ratio at 1.5 h: 139 pmol, 90 min p.i.
Procedure: as §1, §2

[3] = H2009 tumor, read-out: Tumor H2009 %IA/g
[4] = adrenals, read-out: Adrenals %IA/g
[5] = heart (myocard), read-out: Heart (myocard) %IA/g
[6] = kidneys, read-out: Kidneys %IA/g
[7] = large intestine (empty), read-out: Large intestine (empty) %IA/g
[8] = pancreas, read-out: Pancreas %IA/g
[9] = small intestine (empty), read-out: Small intestine (empty) %IA/g
[10] = stomach (empty), read-out: Stomach (empty) %IA/g
[11] = tumor/blood, read-out: tumor/organ ratio, Blood
[12] = tumor/heart (myocard), read-out: tumor/organ ratio, Heart (myocard)
[13] = tumor/liver, read-out: tumor/organ ratio, Liver
[14] = tumor/lung, read-out: tumor/organ ratio, Lung
[15] = tumor/pancreas, read-out: tumor/organ ratio, Pancreas
[16] = tumor/spleen, read-out: tumor/organ ratio, Spleen

With `CC(C)C[C@@H]1NC(=O)[C@H](CC(=O)O)NC(=O)CNC(=O)[C@H](CCCNC(=N)N)NC(=O)[C@H](Cc2ccccc2)NC(=O)[C@H](CCCCNC(=O)CCc2cn(CCCNC(=O)CCP(=O)(O)CN3CCN(CP(=O)(O)CCC(=O)NCCCn4cc(CCC(=O)NCCCC[C@H]5C(=O)N[C@@H](Cc6ccccc6)C(=O)N[C@@H](CCCNC(=N)N)C(=O)NCC(=O)N[C@@H](CC(=O)O)C(=O)N[C@@H](CC(C)C)C(=O)N[C@@H](C)C(=O)N[C@@H](Cc6ccc(O)cc6)C(=O)N6CCC[C@@H]6C(=O)N5C)nn4)CCN(CP(=O)(O)CCC(=O)NCCCn4cc(CCC(=O)NCCCC[C@H]5C(=O)N[C@@H](Cc6ccccc6)C(=O)N[C@@H](CCCNC(=N)N)C(=O)NCC(=O)N[C@@H](CC(=O)O)C(=O)N[C@@H](CC(C)C)C(=O)N[C@@H](C)C(=O)N[C@@H](Cc6ccc(O)cc6)C(=O)N6CCC[C@@H]6C(=O)N5C)nn4)CCN(CP(=O)(O)CCC(=O)NCCCn4cc(CCC(=O)NCCCC[C@H]5C(=O)N[C@@H](Cc6ccccc6)C(=O)N[C@@H](CCCNC(=N)N)C(=O)NCC(=O)N[C@@H](CC(=O)O)C(=O)N[C@@H](CC(C)C)C(=O)N[C@@H](C)C(=O)N[C@@H](Cc6ccc(O)cc6)C(=O)N6CCC[C@@H]6C(=O)N5C)nn4)CC3)nn2)N(C)C(=O)[C@H]2CCCN2C(=O)[C@H](Cc2ccccc2)NC(=O)[C@H](C)NC1=O` [Compound 177Lu-Y3, metal not drawn] the “tumor/organ ratio, Kidneys” value ([1]; 90 min p.i.) was 0.0, the “tumor/organ ratio, Kidneys” value ([1]; 3 d p.i.) was 0.0 and the tissue uptake at 72 h [2, 3] was 2.03 %ID/g. The tissue uptake at 1.5 h [2, 3] was 3.7 %ID/g, the tissue uptake at 72 h [2, 4] was 0.27 %ID/g and the tissue uptake at 1.5 h [2, 4] was 1.04 %ID/g. The tissue uptake at 72 h ([2]; blood, read-out: Blood %IA/g) was 0.02 %ID/g, the tissue uptake at 1.5 h ([2]; blood, read-out: Blood %IA/g) was 1.11 %ID/g and the tissue uptake at 72 h ([2]; bone, read-out: Bone %IA/g) was 0.35 %ID/g. For the same molecule, the tissue uptake at 1.5 h ([2]; bone, read-out: Bone %IA/g) was 1.51 %ID/g, the tissue uptake at 72 h [2, 5] was 0.22 %ID/g and the tissue uptake at 1.5 h [2, 5] was 0.65 %ID/g. It also gave a tissue uptake at 72 h [2, 6] of 250 %ID/g, a tissue uptake at 1.5 h [2, 6] of 141 %ID/g and a tissue uptake at 72 h [2, 7] of 1.34 %ID/g. It also gave a tissue uptake at 1.5 h [2, 7] of 3.43 %ID/g, a tissue uptake at 72 h ([2]; liver, read-out: Liver %IA/g) of 1.17 %ID/g and a tissue uptake at 1.5 h ([2]; liver, read-out: Liver %IA/g) of 7.59 %ID/g. It also gave a tissue uptake at 72 h ([2]; lung, read-out: Lung %IA/g) of 1.22 %ID/g, a tissue uptake at 1.5 h ([2]; lung, read-out: Lung %IA/g) of 4.91 %ID/g and a tissue uptake at 72 h ([2]; muscle, read-out: Muscle %IA/g) of 0.47 %ID/g. The tissue uptake at 1.5 h ([2]; muscle, read-out: Muscle %IA/g) was 0.57 %ID/g, the tissue uptake at 72 h [2, 8] was 0.25 %ID/g and the tissue uptake at 1.5 h [2, 8] was 0.36 %ID/g. The tissue uptake at 72 h [2, 9] was 0.37 %ID/g, the tissue uptake at 1.5 h [2, 9] was 2.49 %ID/g and the tissue uptake at 72 h ([2]; spleen, read-out: Spleen %IA/g) was 1.36 %ID/g. The tissue uptake at 1.5 h ([2]; spleen, read-out: Spleen %IA/g) was 8.5 %ID/g, the tissue uptake at 72 h [2, 10] was 4.76 %ID/g and the tissue uptake at 1.5 h [2, 10] was 7.42 %ID/g. The tissue to tissue ratio at 72 h ([2]; tumor / adrenals, read-out: tumor/organ ratio, Adrenals) was 8.4, the tissue to tissue ratio at 72 h ([2]; tumor / bone, read-out: tumor/organ ratio, Bone) was 6.6 and the tissue to tissue ratio at 72 h ([2]; tumor / large intestine (empty), read-out: tumor/organ ratio, Large intestine (empty)) was 2.3. The tissue to tissue ratio at 72 h ([2]; tumor / muscle, read-out: tumor/organ ratio, Muscle) was 5.3, the tissue to tissue ratio at 72 h ([2]; tumor / small intestine (empty), read-out: tumor/organ ratio, Small intestine (empty)) was 6.6 and the tissue to tissue ratio at 72 h ([2]; tumor / stomach (empty), read-out: tumor/organ ratio, Stomach (empty)) was 0.5. It also gave a tissue to tissue ratio at 1.5 h ([2]; tumor/adrenals, read-out: tumor/organ ratio, Adrenals) of 3.9, a tissue to tissue ratio at 72 h [2, 11] of 129 and a tissue to tissue ratio at 1.5 h [2, 11] of 3.4. The tissue to tissue ratio at 1.5 h ([2]; tumor/bone, read-out: tumor/organ ratio, Bone) was 2.5, the tissue to tissue ratio at 72 h [2, 12] was 9.4 and the tissue to tissue ratio at 1.5 h [2, 12] was 5.8. For the same molecule, the tissue to tissue ratio at 1.5 h ([2]; tumor/large intestine (empty), read-out: tumor/organ ratio, Large intestine (empty)) was 1.1, the tissue to tissue ratio at 72 h [2, 13] was 1.9 and the tissue to tissue ratio at 1.5 h [2, 13] was 0.6. The tissue to tissue ratio at 72 h [2, 14] was 1.7, the tissue to tissue ratio at 1.5 h [2, 14] was 0.8 and the tissue to tissue ratio at 1.5 h ([2]; tumor/muscle, read-out: tumor/organ ratio, Muscle) was 6.6. The tissue to tissue ratio at 72 h [2, 15] was 10.6, the tissue to tissue ratio at 1.5 h [2, 15] was 10.3 and the tissue to tissue ratio at 1.5 h ([2]; tumor/small intestine (empty), read-out: tumor/organ ratio, Small intestine (empty)) was 1.5. It also gave a tissue to tissue ratio at 72 h [2, 16] of 1.7, a tissue to tissue ratio at 1.5 h [2, 16] of 0.5 and a tissue to tissue ratio at 1.5 h ([2]; tumor/stomach (empty), read-out: tumor/organ ratio, Stomach (empty)) of 0.5.

From article PMC11187563, “The importance of tyrosines in multimers of cyclic RGD nonapeptides: towards αvβ6-integrin targeted radiotherapeutics” (RSC Medicinal Chemistry, 2024)
